Assay results taken from patent publication US20210032299A1.
Starred links: 1 amine or outer side, 2 acyl side, 3 side chain; linkers in the order of their positions; H or OH if unused. Non-standard residues stand in square brackets, D forms with d. Groups on a side chain read outwards from the residue. No end group written: not given here. *: point of attachment. C20 diacid = O=C(O)CCCCCCCCCCCCCCCCCCC(=O)*; C18 diacid = O=C(O)CCCCCCCCCCCCCCCCC(=O)*; γGlu = O=C(O)[C@H](CCC(=O)[*:2])N[*:1]; αMeL = CC(C)C[C@](C)(N)C(=O)O; Orn = NCCC[C@H](N)C(=O)O; AEEA = NCCOCCOCC(=O)O; Aib = CC(C)(N)C(=O)O

B1: Example 7 (peptide)
peptide: Y[Aib]EGTFISDYSI[αMeL]LD[Orn]IHQ[Aib]EFV[dE]YK([AEEA-AEEA-γGlu-C18 diacid])LEGGPSSGAPPPS-NH2
modifications: N-terminus assumed
SMILES: CC[C@H](C)[C@H](NC(=O)[C@H](CCCN)NC(=O)[C@H](CC(=O)O)NC(=O)[C@H](CC(C)C)NC(=O)[C@](C)(CC(C)C)NC(=O)[C@@H](NC(=O)[C@H](CO)NC(=O)[C@H](Cc1ccc(O)cc1)NC(=O)[C@H](CC(=O)O)NC(=O)[C@H](CO)NC(=O)[C@@H](NC(=O)[C@H](Cc1ccccc1)NC(=O)[C@@H](NC(=O)CNC(=O)[C@H](CCC(=O)O)NC(=O)C(C)(C)NC(=O)[C@@H](N)Cc1ccc(O)cc1)[C@@H](C)O)[C@@H](C)CC)[C@@H](C)CC)C(=O)N[C@@H](Cc1c[nH]cn1)C(=O)N[C@@H](CCC(N)=O)C(=O)NC(C)(C)C(=O)N[C@@H](CCC(=O)O)C(=O)N[C@@H](Cc1ccccc1)C(=O)N[C@H](C(=O)N[C@H](CCC(=O)O)C(=O)N[C@@H](Cc1ccc(O)cc1)C(=O)N[C@@H](CCCCNC(=O)COCCOCCNC(=O)COCCOCCNC(=O)CC[C@H](NC(=O)CCCCCCCCCCCCCCCCC(=O)O)C(=O)O)C(=O)N[C@@H](CC(C)C)C(=O)N[C@@H](CCC(=O)O)C(=O)NCC(=O)NCC(=O)N1CCC[C@H]1C(=O)N[C@@H](CO)C(=O)N[C@@H](CO)C(=O)NCC(=O)N[C@@H](C)C(=O)N1CCC[C@H]1C(=O)N1CCC[C@H]1C(=O)N1CCC[C@H]1C(=O)N[C@@H](CO)C(N)=O)C(C)C
B2: Example 96 (peptide)
peptide: Y[Aib]EGTFISDYSIALDKIHQ[Aib]EFVNYK([AEEA-AEEA-γGlu-C20 diacid])LAGGPSSGAPPPS-NH2
modifications: N-terminus assumed
SMILES: CC[C@H](C)[C@H](NC(=O)[C@H](CO)NC(=O)[C@H](Cc1ccc(O)cc1)NC(=O)[C@H](CC(=O)O)NC(=O)[C@H](CO)NC(=O)[C@@H](NC(=O)[C@H](Cc1ccccc1)NC(=O)[C@@H](NC(=O)CNC(=O)[C@H](CCC(=O)O)NC(=O)C(C)(C)NC(=O)[C@@H](N)Cc1ccc(O)cc1)[C@@H](C)O)[C@@H](C)CC)C(=O)N[C@@H](C)C(=O)N[C@@H](CC(C)C)C(=O)N[C@@H](CC(=O)O)C(=O)N[C@@H](CCCCN)C(=O)N[C@H](C(=O)N[C@@H](Cc1c[nH]cn1)C(=O)N[C@@H](CCC(N)=O)C(=O)NC(C)(C)C(=O)N[C@@H](CCC(=O)O)C(=O)N[C@@H](Cc1ccccc1)C(=O)N[C@H](C(=O)N[C@@H](CC(N)=O)C(=O)N[C@@H](Cc1ccc(O)cc1)C(=O)N[C@@H](CCCCNC(=O)COCCOCCNC(=O)COCCOCCNC(=O)CC[C@H](NC(=O)CCCCCCCCCCCCCCCCCCC(=O)O)C(=O)O)C(=O)N[C@@H](CC(C)C)C(=O)N[C@@H](C)C(=O)NCC(=O)NCC(=O)N1CCC[C@H]1C(=O)N[C@@H](CO)C(=O)N[C@@H](CO)C(=O)NCC(=O)N[C@@H](C)C(=O)N1CCC[C@H]1C(=O)N1CCC[C@H]1C(=O)N1CCC[C@H]1C(=O)N[C@@H](CO)C(N)=O)C(C)C)[C@@H](C)CC
B3: Example 105 (peptide)
peptide: Y[Aib]EGTFISDYSI[αMeL]LD[Orn]IHQ[Aib]EFVEYK([AEEA-AEEA-γGlu-C20 diacid])LETGPSSGAPPPS-NH2
modifications: N-terminus assumed
SMILES: CC[C@H](C)[C@H](NC(=O)[C@H](CCCN)NC(=O)[C@H](CC(=O)O)NC(=O)[C@H](CC(C)C)NC(=O)[C@](C)(CC(C)C)NC(=O)[C@@H](NC(=O)[C@H](CO)NC(=O)[C@H](Cc1ccc(O)cc1)NC(=O)[C@H](CC(=O)O)NC(=O)[C@H](CO)NC(=O)[C@@H](NC(=O)[C@H](Cc1ccccc1)NC(=O)[C@@H](NC(=O)CNC(=O)[C@H](CCC(=O)O)NC(=O)C(C)(C)NC(=O)[C@@H](N)Cc1ccc(O)cc1)[C@@H](C)O)[C@@H](C)CC)[C@@H](C)CC)C(=O)N[C@@H](Cc1c[nH]cn1)C(=O)N[C@@H](CCC(N)=O)C(=O)NC(C)(C)C(=O)N[C@@H](CCC(=O)O)C(=O)N[C@@H](Cc1ccccc1)C(=O)N[C@H](C(=O)N[C@@H](CCC(=O)O)C(=O)N[C@@H](Cc1ccc(O)cc1)C(=O)N[C@@H](CCCCNC(=O)COCCOCCNC(=O)COCCOCCNC(=O)CC[C@H](NC(=O)CCCCCCCCCCCCCCCCCCC(=O)O)C(=O)O)C(=O)N[C@@H](CC(C)C)C(=O)N[C@@H](CCC(=O)O)C(=O)N[C@H](C(=O)NCC(=O)N1CCC[C@H]1C(=O)N[C@@H](CO)C(=O)N[C@@H](CO)C(=O)NCC(=O)N[C@@H](C)C(=O)N1CCC[C@H]1C(=O)N1CCC[C@H]1C(=O)N1CCC[C@H]1C(=O)N[C@@H](CO)C(N)=O)[C@@H](C)O)C(C)C
B4: Example 103 (peptide)
peptide: Y[Aib]EGTFISDYSI[αMeL]LD[Orn]IHQ[Aib]DFVEYK([AEEA-AEEA-γGlu-C18 diacid])LEGGPSSGAPPPS-NH2
modifications: N-terminus assumed
SMILES: CC[C@H](C)[C@H](NC(=O)[C@H](CCCN)NC(=O)[C@H](CC(=O)O)NC(=O)[C@H](CC(C)C)NC(=O)[C@](C)(CC(C)C)NC(=O)[C@@H](NC(=O)[C@H](CO)NC(=O)[C@H](Cc1ccc(O)cc1)NC(=O)[C@H](CC(=O)O)NC(=O)[C@H](CO)NC(=O)[C@@H](NC(=O)[C@H](Cc1ccccc1)NC(=O)[C@@H](NC(=O)CNC(=O)[C@H](CCC(=O)O)NC(=O)C(C)(C)NC(=O)[C@@H](N)Cc1ccc(O)cc1)[C@@H](C)O)[C@@H](C)CC)[C@@H](C)CC)C(=O)N[C@@H](Cc1c[nH]cn1)C(=O)N[C@@H](CCC(N)=O)C(=O)NC(C)(C)C(=O)N[C@@H](CC(=O)O)C(=O)N[C@@H](Cc1ccccc1)C(=O)N[C@H](C(=O)N[C@@H](CCC(=O)O)C(=O)N[C@@H](Cc1ccc(O)cc1)C(=O)N[C@@H](CCCCNC(=O)COCCOCCNC(=O)COCCOCCNC(=O)CC[C@H](NC(=O)CCCCCCCCCCCCCCCCC(=O)O)C(=O)O)C(=O)N[C@@H](CC(C)C)C(=O)N[C@@H](CCC(=O)O)C(=O)NCC(=O)NCC(=O)N1CCC[C@H]1C(=O)N[C@@H](CO)C(=O)N[C@@H](CO)C(=O)NCC(=O)N[C@@H](C)C(=O)N1CCC[C@H]1C(=O)N1CCC[C@H]1C(=O)N1CCC[C@H]1C(=O)N[C@@H](CO)C(N)=O)C(C)C
B5: Example 102 (peptide)
peptide: Y[Aib]EGTFISDYSI[αMeL]LD[Orn]IHQ[Aib]EFV[dE]YK([AEEA-AEEA-γGlu-C20 diacid])LEGGPSSGAPPPS-NH2
modifications: N-terminus assumed
SMILES: CC[C@H](C)[C@H](NC(=O)[C@H](CCCN)NC(=O)[C@H](CC(=O)O)NC(=O)[C@H](CC(C)C)NC(=O)[C@](C)(CC(C)C)NC(=O)[C@@H](NC(=O)[C@H](CO)NC(=O)[C@H](Cc1ccc(O)cc1)NC(=O)[C@H](CC(=O)O)NC(=O)[C@H](CO)NC(=O)[C@@H](NC(=O)[C@H](Cc1ccccc1)NC(=O)[C@@H](NC(=O)CNC(=O)[C@H](CCC(=O)O)NC(=O)C(C)(C)NC(=O)[C@@H](N)Cc1ccc(O)cc1)[C@@H](C)O)[C@@H](C)CC)[C@@H](C)CC)C(=O)N[C@@H](Cc1c[nH]cn1)C(=O)N[C@@H](CCC(N)=O)C(=O)NC(C)(C)C(=O)N[C@@H](CCC(=O)O)C(=O)N[C@@H](Cc1ccccc1)C(=O)N[C@H](C(=O)N[C@H](CCC(=O)O)C(=O)N[C@@H](Cc1ccc(O)cc1)C(=O)N[C@@H](CCCCNC(=O)COCCOCCNC(=O)COCCOCCNC(=O)CC[C@H](NC(=O)CCCCCCCCCCCCCCCCCCC(=O)O)C(=O)O)C(=O)N[C@@H](CC(C)C)C(=O)N[C@@H](CCC(=O)O)C(=O)NCC(=O)NCC(=O)N1CCC[C@H]1C(=O)N[C@@H](CO)C(=O)N[C@@H](CO)C(=O)NCC(=O)N[C@@H](C)C(=O)N1CCC[C@H]1C(=O)N1CCC[C@H]1C(=O)N1CCC[C@H]1C(=O)N[C@@H](CO)C(N)=O)C(C)C
B6: Example 104 (peptide)
peptide: Y[Aib]EGTFISDYSI[αMeL]LD[Orn]IHQ[Aib]EFVEYK([AEEA-AEEA-γGlu-C20 diacid])LEAGPSSGAPPPS-NH2
modifications: N-terminus assumed
SMILES: CC[C@H](C)[C@H](NC(=O)[C@H](CCCN)NC(=O)[C@H](CC(=O)O)NC(=O)[C@H](CC(C)C)NC(=O)[C@](C)(CC(C)C)NC(=O)[C@@H](NC(=O)[C@H](CO)NC(=O)[C@H](Cc1ccc(O)cc1)NC(=O)[C@H](CC(=O)O)NC(=O)[C@H](CO)NC(=O)[C@@H](NC(=O)[C@H](Cc1ccccc1)NC(=O)[C@@H](NC(=O)CNC(=O)[C@H](CCC(=O)O)NC(=O)C(C)(C)NC(=O)[C@@H](N)Cc1ccc(O)cc1)[C@@H](C)O)[C@@H](C)CC)[C@@H](C)CC)C(=O)N[C@@H](Cc1c[nH]cn1)C(=O)N[C@@H](CCC(N)=O)C(=O)NC(C)(C)C(=O)N[C@@H](CCC(=O)O)C(=O)N[C@@H](Cc1ccccc1)C(=O)N[C@H](C(=O)N[C@@H](CCC(=O)O)C(=O)N[C@@H](Cc1ccc(O)cc1)C(=O)N[C@@H](CCCCNC(=O)COCCOCCNC(=O)COCCOCCNC(=O)CC[C@H](NC(=O)CCCCCCCCCCCCCCCCCCC(=O)O)C(=O)O)C(=O)N[C@@H](CC(C)C)C(=O)N[C@@H](CCC(=O)O)C(=O)N[C@@H](C)C(=O)NCC(=O)N1CCC[C@H]1C(=O)N[C@@H](CO)C(=O)N[C@@H](CO)C(=O)NCC(=O)N[C@@H](C)C(=O)N1CCC[C@H]1C(=O)N1CCC[C@H]1C(=O)N1CCC[C@H]1C(=O)N[C@@H](CO)C(N)=O)C(C)C

Molecular target: T1, human glucose-dependent insulinotropic polypeptide (GIP) receptor (human), P48546
T1 chain: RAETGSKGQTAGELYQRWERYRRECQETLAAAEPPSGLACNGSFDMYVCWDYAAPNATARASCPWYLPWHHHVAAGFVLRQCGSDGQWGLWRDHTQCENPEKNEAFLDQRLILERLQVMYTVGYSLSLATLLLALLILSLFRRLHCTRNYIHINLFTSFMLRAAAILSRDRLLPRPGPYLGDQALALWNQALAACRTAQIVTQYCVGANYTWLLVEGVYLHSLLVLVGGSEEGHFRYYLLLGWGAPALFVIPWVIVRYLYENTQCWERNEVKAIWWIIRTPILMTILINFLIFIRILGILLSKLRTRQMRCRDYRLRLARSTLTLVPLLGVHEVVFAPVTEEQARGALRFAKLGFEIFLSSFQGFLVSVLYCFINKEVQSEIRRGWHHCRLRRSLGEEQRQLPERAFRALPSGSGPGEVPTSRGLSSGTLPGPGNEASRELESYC
Test: SPA, displacement of [125I]-GIP from hGIPR membranes, 0.1% bacitracin

Row | Binder | Ki [nM]
1 | B1 | 0.193
2 | B2 | 0.232
3 | Y[Aib]EGTFISDYSI[αMeL]LD[Orn]IHQ[Aib]DFV[dE]YK([AEEA-AEEA-γGlu-C20 diacid])LEGGPSSGAPPPS-NH2 [Example 101] | 0.139
4 | B3 | 0.174
5 | B4 | 0.0405
6 | B5 | 0.164
7 | B6 | 0.134
